Laboratory results: publication PMC6505963

Columns and labels:
BLM RQC (GST-free) = BLM RQC (GST-free) (human, UniProt P54132 1068-1209); test: fluorescence polarization; FP: 10 mM Tris-HCl pH 7.5, 25 mM NaCl, 1 mM DTT, 100 pM DNA, 25 C; EMSA: 10 mM Tris-HCl pH 8.0, 2 mM DTT, 1 mM EDTA, 20% glycerol, 0.2 uM DNA, 4 C, 30 min, 7.5%
GST-BLM RQC K1125A = GST-BLM RQC K1125A (human, UniProt P54132 1068-1209, K1125A); test: EMSA; FP: 10 mM Tris-HCl pH 7.5, 25 mM NaCl, 1 mM DTT, 100 pM DNA, 25 C; EMSA: 10 mM Tris-HCl pH 8.0, 2 mM DTT, 1 mM EDTA, 20% glycerol, 0.2 uM DNA, 4 C, 30 min, 7.5%
GST-BLM RQC R1139A = GST-BLM RQC R1139A (human, UniProt P54132 1068-1209, R1139A); test: as above
GST-BLM RQC S1121A = GST-BLM RQC S1121A (human, UniProt P54132 1068-1209, S1121A); test: as above
GST-BLM RQC = GST-BLM RQC (human, UniProt P54132 1068-1209); test: EMSA; 1, 5, 10 uM protein; FP: 10 mM Tris-HCl pH 7.5, 25 mM NaCl, 1 mM DTT, 100 pM DNA, 25 C; EMSA: 10 mM Tris-HCl pH 8.0, 2 mM DTT, 1 mM EDTA, 20% glycerol, 0.2 uM DNA, 4 C, 30 min, 7.5%
Chain of GST-BLM RQC (P54132 1068-1209): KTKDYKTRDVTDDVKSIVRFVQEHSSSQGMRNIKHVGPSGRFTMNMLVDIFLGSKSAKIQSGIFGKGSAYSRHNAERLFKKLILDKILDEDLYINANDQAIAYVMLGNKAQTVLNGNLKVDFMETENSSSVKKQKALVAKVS

Chain of GST-BLM RQC R1139A (P54132 1068-1209 R1139A): as the sequence (P54132 1068-1209) above, with R72A counted along it
Chain of GST-BLM RQC S1121A (P54132 1068-1209 S1121A): as the sequence (P54132 1068-1209) above, with S54A counted along it
Chain of GST-BLM RQC K1125A (P54132 1068-1209 K1125A): as the sequence (P54132 1068-1209) above, with K58A counted along it
Chain of BLM RQC (GST-free) (P54132 1068-1209): as the sequence (P54132 1068-1209) above

B1: forked duplex (dsDNA)
DNA 1: TTTTTTTTTTAGGGCATGCACTAC
DNA 2: GTAGTGCATGCCCTAATTTTTTTT
Kd (BLM RQC (GST-free)): ~700 nM

B2: Holliday junction (HJ) (structured_DNA)
DNA 1: CTAGAACAGCATGTCCTAGCAAGCCAGAATTC
DNA 2: GAATTCTGGCTTGCTAGGACATCTTTGCCCAC
DNA 3: GTGGGCAAAGATGTCCTAGCAATGTAATCGTC
DNA 4: GACGATTACATTGCTAGGACATGCTGTTCTAG
binding signal (GST-BLM RQC K1125A): ~50 % loss of binding vs wild type
binding signal (GST-BLM RQC R1139A): ~70 % loss of binding vs wild type
binding signal (GST-BLM RQC S1121A): ~10 % loss of binding vs wild type
binding result (GST-BLM RQC): binds
